# “And” between values parts separate entries of the source, which are not always exact repeats. Identical values can stand only once.
# T1: mouse RON homologue (Mus musculus, UniProt Q62190)
# T1 sequence (Q62190 24-1378): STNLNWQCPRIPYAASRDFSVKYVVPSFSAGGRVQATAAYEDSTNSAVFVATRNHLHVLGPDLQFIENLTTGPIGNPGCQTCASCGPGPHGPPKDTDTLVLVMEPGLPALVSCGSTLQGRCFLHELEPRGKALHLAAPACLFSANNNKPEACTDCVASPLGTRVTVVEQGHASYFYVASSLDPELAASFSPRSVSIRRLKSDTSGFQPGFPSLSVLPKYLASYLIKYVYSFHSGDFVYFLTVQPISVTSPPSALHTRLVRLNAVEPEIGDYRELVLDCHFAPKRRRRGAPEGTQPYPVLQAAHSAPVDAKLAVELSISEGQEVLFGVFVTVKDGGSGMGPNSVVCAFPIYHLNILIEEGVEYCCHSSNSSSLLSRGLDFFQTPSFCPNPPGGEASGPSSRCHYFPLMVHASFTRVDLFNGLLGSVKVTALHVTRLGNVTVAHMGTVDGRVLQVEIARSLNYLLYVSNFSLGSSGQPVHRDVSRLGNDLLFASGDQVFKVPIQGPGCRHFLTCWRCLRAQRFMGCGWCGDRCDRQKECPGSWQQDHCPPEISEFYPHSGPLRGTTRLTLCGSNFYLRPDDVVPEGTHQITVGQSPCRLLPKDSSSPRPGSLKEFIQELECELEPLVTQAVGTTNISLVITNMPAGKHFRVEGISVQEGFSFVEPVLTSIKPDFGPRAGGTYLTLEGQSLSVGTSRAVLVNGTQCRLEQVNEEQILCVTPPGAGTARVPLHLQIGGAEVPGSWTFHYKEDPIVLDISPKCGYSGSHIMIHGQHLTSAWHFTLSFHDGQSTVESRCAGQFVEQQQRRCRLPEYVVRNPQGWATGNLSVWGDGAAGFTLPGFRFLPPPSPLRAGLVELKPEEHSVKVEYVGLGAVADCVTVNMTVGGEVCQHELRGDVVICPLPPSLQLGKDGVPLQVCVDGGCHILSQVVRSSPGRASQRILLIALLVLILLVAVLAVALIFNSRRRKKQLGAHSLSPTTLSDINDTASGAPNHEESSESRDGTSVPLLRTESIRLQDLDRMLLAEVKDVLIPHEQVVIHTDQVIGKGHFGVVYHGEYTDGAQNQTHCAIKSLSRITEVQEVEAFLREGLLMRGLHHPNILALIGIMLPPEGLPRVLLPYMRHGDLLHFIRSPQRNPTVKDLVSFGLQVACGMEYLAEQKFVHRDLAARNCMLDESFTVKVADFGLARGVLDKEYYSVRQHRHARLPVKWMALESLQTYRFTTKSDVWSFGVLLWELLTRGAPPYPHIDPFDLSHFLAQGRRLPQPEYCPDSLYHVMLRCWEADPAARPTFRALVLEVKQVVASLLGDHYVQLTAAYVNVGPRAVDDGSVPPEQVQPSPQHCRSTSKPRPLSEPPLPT
# Columns and labels:
# [1] = test system: HT29 cells; test: Cell viability assay, HT29; assay type: cell-based, human; conditions: read-out: IC50 cell viability, free DM1
# Experimental: (§1) Cell viability was determined by the MTS assay. […] Morphological changes were observed under the Olympus BK-41 inverted microscope and photographed. […] FIG. 3D: Cell death percentages were determined by the trypan blue exclusion method.
# (§2) Cell viability and death assays: Cell viability 72 h after Zt/g4-DM1 treatment was determined by the MTT assay (22). Viable or dead cells were determined by the trypan blue exclusion assay. A total of 900 cells were counted from three individual wells to reach the percentages of dead cells.
# (§3) The effect of Zt/g4-DM1 on cell viability was determined. […] The cells were treated with Zt/g4-DM1.
# [2] = test system: HCT116 cells; test: Cell viability assay, HCT116; assay type: cell-based, human; conditions: read-out: IC50 cell viability, free DM1
# Experimental: as §1, §2, §3
# [3] = test system: SW620 cells; test: Cell viability assay, SW620; assay type: cell-based, human; conditions: read-out: IC50 cell viability, free DM1
# Experimental: as §1, §2, §3
# [4] = target: T2, oncogenic RON variant RON160 (human, UniProt Q04912 25-1400, limits assumed); test: receptor binding studies; format not stated
# T2 construct: also called RONΔ160
# [5] = target: T3, human RON receptor tyrosine kinase (recepteur d'origine nantais) (human, UniProt Q04912 25-1400); test: cell-based or functional assay
# [6] = target: T3, human RON receptor tyrosine kinase …; test: cell-based or functional assay; remark: listed apart in the source
# [7] = target: RON (Homo sapiens, UniProt Q04912); test: Classification of anti-RON mAbs by activity upon binding to RON; assay type: cell-based
# From the text: Using an advanced living cell immunization method, the present inventors were able to generate mAbs specific only to the RON extracellular domains. Using flow cytometer in conjunction with biological assays, the present inventors characterize our anti-RON mAbs for their specificity and sensitivity. […] This is based on direct binding, ELISA, IHC, Western blotting and other biochemical and biological assays. Moreover, based on their activities upon binding to RON, the present inventors were able to classify the anti-RON mAb into three categories. […] This type of anti-RON mAbs is considered as agnostic antibodies. The representatives are Zt/g4, Zt/c1, Zt/c9, Zt/f1, and Zt/H12. […] The typical examples are Zt/g9 and Zt/c8. […] One example is Zt/f2. The present inventors considered this type of mAb having therapeutic potentials.
# [8] = target: T1, mouse RON homologue; conditions: cited from earlier work
# [9] = target: cell surface RON (Homo sapiens, UniProt Q04912); test: Antibody-induced RON endocytosis in cancerous cells; assay type: cell-based; set-up: cause rapid and significant amount of cell surface RON internalization in cancerous cells; endogenous in cells
# From the text: During characterization of anti-RON mAbs, the present inventors discovered that agonistic anti-RON mAb such as Zt/g4 and Zt/c1 binds to RON and cause rapid and significant amount of cell surface RON internalization in cancerous cells (a process known as antibody-induced receptor endocytosis). […] Fab fragments that fail to cause RON activation cannot induce RON endocytosis. In light of these findings, the present inventors conclude that anti-RON mAb-induced RON endocytosis can be used as a pharmaceutical means for targeted drug delivery.
# [10] = target: T3, human RON receptor tyrosine kinase …; test: direct binding, ELISA, IHC, Western blotting, flow cytometry
# [11] = test system: human pancreatic cancer cells; test: PDAC cell viability in combination with chemotherapeutics; assay type: cell-based
# Experimental: In vitro cell viability and death assays: Cell viability after treatment of Zt/g4-DM1, chemotherapeutics, and their combinations was determined by the MTT assay. Cell death was determined by the trypan blue exclusion assay.
# FIGS. 10A to 10D are graphs that show the effect of Zt/g4-DM1 on pancreatic cancer cell cycle, viability, and apoptotic death. […] FIG. 12 are graphs that show synergism between Zt/g4-DM1 and chemotherapeutics by isobolograms.
# cell surface RON, sequence (Q04912 25-1400): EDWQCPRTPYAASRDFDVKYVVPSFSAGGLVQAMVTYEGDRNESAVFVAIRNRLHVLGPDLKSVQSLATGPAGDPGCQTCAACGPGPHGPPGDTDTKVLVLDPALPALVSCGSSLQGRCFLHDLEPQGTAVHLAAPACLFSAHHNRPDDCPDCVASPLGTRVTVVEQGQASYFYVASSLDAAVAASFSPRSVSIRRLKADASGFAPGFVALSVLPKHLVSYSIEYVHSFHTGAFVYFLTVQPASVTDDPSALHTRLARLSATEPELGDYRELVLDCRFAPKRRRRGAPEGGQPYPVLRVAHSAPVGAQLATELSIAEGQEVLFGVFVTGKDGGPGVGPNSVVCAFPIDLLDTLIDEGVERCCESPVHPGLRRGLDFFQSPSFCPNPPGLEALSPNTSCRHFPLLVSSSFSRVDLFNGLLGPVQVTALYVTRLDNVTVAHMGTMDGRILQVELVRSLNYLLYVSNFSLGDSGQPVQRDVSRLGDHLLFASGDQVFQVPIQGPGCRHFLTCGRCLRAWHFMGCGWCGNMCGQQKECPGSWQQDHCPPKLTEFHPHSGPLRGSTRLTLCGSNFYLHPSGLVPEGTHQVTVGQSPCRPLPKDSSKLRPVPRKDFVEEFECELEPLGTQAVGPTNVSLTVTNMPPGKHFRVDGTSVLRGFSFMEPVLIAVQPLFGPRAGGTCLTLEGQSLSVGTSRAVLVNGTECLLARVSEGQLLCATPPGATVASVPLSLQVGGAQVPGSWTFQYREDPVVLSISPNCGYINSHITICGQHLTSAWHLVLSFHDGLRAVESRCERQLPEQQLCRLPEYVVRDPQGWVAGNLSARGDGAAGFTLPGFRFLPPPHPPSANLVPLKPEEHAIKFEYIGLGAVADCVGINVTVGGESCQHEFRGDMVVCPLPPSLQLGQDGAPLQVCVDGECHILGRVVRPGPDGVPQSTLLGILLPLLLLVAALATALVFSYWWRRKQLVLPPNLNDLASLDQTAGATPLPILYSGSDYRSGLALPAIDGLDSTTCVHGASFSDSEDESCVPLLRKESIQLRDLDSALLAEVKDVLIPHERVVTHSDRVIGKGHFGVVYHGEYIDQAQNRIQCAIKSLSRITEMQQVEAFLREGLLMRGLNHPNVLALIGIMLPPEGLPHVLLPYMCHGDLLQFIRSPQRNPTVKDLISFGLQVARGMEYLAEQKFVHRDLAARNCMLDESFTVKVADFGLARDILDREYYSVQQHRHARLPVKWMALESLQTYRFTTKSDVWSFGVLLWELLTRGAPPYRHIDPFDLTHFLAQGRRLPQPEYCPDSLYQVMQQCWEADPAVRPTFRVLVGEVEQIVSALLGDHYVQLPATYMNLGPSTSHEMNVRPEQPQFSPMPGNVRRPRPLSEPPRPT
# RON, sequence (Q04912 25-1400): as above
molecule,measurement,setting,value
"COc1cc2cc(c1Cl)N(C)C(=O)C[C@H](OC(=O)[C@H](C)N(C)C(=O)CCS)[C@]1(C)O[C@H]1[C@H](C)[C@@H]1C[C@@](O)(NC(=O)O1)[C@H](OC)/C=C/C=C(\C)C2 [DM1, Maytansinoid (DM1)]",IC50,[1],4.4 nM
same,IC50,[2],4.1 nM
same,IC50,[3],3.2 nM
"mouse monoclonal antibody Zt/f2 specific to human RON (antibody, V domains shown, Mouse IgG2a; also called anti-RON mAb Zt/f2) VH: QVQLQQSGAELAKPGASVKMSCKASGYTFTSYWMHWVKQRPGQGLEWIGYINPSTGYIEYNQNFKDKATLTADKSSSTAYMQLSSLTSEDSAVYYCARSPSHYYGSRYGYFDVWGAGTTVTVSS VL: QIVLSQSPAILSASPGEKVTMTCRASSSVSYMHWYQQKPGSSPKPWIYATSNLASGVPARFSGSGSGTSYSLTISRVEAEDAATYYCQQWSSNPRTFGGGTKLEIK",EC50,[4],2.3 nM
"anti-RON antibody Zt/g4-maytansinoid (DM1) conjugate Zt/g4-DM1 (antibody, V domains shown, DM1 conjugated by non-reducible thioether linkage (SMCC) through lysine residues in the antibody molecule; sites not stated; DM1 conjugated by non-reducible thioether linkage (SMCC) through lysine residues in the antibody molecule; average DAR 3.724; sites not stated) VH: EVQLQQSGAELVKPGASVKLSCTTSGFNIIDTYIHWVNQKPDQGLEWIGRIDPADGNRKSDPKFQVKATITVDTSSNTAYLQLSSLTSGDTAVYYCARGYGNLNAMDSWGQGTSVTVSS VL: DIQMNQSPSSLSASLGDTITITCHASQNINVWLNWYQQKPGNIPKLLIYKASNLHTGVPSRFSGSGSGTGFTLTISSLQPEDIATYYCQQGQSYPLTFGGGTKLEIK","IC50 of cell death at 72 h, three CRC cell lines",[5],5 to 7 µg/mL
same,"IC50 of cell viability at 72 h, HCT116 cells",[5],2.16 µg/mL
same,"IC50 of cell viability at 72 h, HT29 cells",[5],1.64 µg/mL
same,"IC50 of cell viability at 72 h, SW620 cells",[5],4.03 µg/mL
same,"IC50 of cell viability, DLD1 cells",[5],20.4 µg/mL
same,"average IC50 value in causing cell death, three PDAC cell lines (L3.6pl, BxPC-3, FG)",[5],3.13 µg/mL
same,"IC50 value, cytotoxic effect on HT-29 cells",[6],1.25 µg/mL and 8.32 nM
"Zt/g4: mouse monoclonal antibody (IgG1α/κ) highly specific to human RON, recognizes the RON sema domain (antibody, V domains shown) VH: EVQLQQSGAELVKPGASVKLSCTTSGFNIIDTYIHWVNQKPDQGLEWIGRIDPADGNRKSDPKFQVKATITVDTSSNTAYLQLSSLTSGDTAVYYCARGYGNLNAMDSWGQGTSVTVSS VL: DIQMNQSPSSLSASLGDTITITCHASQNINVWLNWYQQKPGNIPKLLIYKASNLHTGVPSRFSGSGSGTGFTLTISSLQPEDIATYYCQQGQSYPLTFGGGTKLEIK",activity upon binding to RON,[7],cause transient RON phosphorylation
same,species recognition of RON,[8],only recognizes human RON but not mouse RON homologue
same,absence of RON expression in cancerous cells in culture,[9]; after endocytosis,up to 72 h
same,cell surface RON internalization,"[9]; within 24 h, 10 μg/ml/1×10^6 cancer cells",almost all cell surface RON is internalized
"mouse anti-RON monoclonal antibody Zt/g4 (antibody, V domains shown, Mouse IgG1a/kappa from hybridoma; The leader is not part of the antibody as tested; also called free Zt/g4; anti-RON mAb Zt/g4) VH: EVQLQQSGAELVKPGASVKLSCTTSGFNIIDTYIHWVNQKPDQGLEWIGRIDPADGNRKSDPKFQVKATITVDTSSNTAYLQLSSLTSGDTAVYYCARGYGNLNAMDSWGQGTSVTVSS VL: DIQMNQSPSSLSASLGDTITITCHASQNINVWLNWYQQKPGNIPKLLIYKASNLHTGVPSRFSGSGSGTGFTLTISSLQPEDIATYYCQQGQSYPLTFGGGTKLEIK",binding result,[10],binds
Zt/g4-MMAE: Zt/g4 conjugated to monomethyl auristatin E (MMAE) (conjugate) VH: EVQLQQSGAELVKPGASVKLSCTTSGFNIIDTYIHWVNQKPDQGLEWIGRIDPADGNRKSDPKFQVKATITVDTSSNTAYLQLSSLTSGDTAVYYCARGYGNLNAMDSWGQGTSVTVSS VL: DIQMNQSPSSLSASLGDTITITCHASQNINVWLNWYQQKPGNIPKLLIYKASNLHTGVPSRFSGSGSGTGFTLTISSLQPEDIATYYCQQGQSYPLTFGGGTKLEIK,combination effect on viability of human pancreatic cancer cells,[11]; in combination with Gemcitabine,synergistic activity
same,combination effect on viability of human pancreatic cancer cells,[11]; in combination with Oxaliplatin,synergistic activity
"Zt/g4-MMAE (antibody, V domains shown, monomethyl auristatin E (MMAE) conjugated; average drug to antibody ratio 3.8:1; sites not stated) VH: EVQLQQSGAELVKPGASVKLSCTTSGFNIIDTYIHWVNQKPDQGLEWIGRIDPADGNRKSDPKFQVKATITVDTSSNTAYLQLSSLTSGDTAVYYCARGYGNLNAMDSWGQGTSVTVSS VL: DIQMNQSPSSLSASLGDTITITCHASQNINVWLNWYQQKPGNIPKLLIYKASNLHTGVPSRFSGSGSGTGFTLTISSLQPEDIATYYCQQGQSYPLTFGGGTKLEIK","average IC50 value in causing cell death, three PDAC cell lines (L3.6pl, BxPC-3, FG)",[5],5.16 µg/mL
